This passage reports amyloid nucleation score results from the supplement of paper PMC12042874.

± gives the uncertainty stated by the source.

The nature of this data set: amyloid nucleation score (Sup35N fusion, yeast selection) (log enrichment); library NNK3; higher = more nucleation; inactive = no reads after selection. In a few lines: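 On medium lacking adenine and uracil, psi-negative yeast expressing peptides of 20 random codons fused to Sup35N were grown 7 days at 30°C after a 24-hour induction with 100 μM copper sulfate. Illumina sequencing of input and output plasmid inserts gave the reads, and sequences under 100 input reads were excluded. The nucleation score is the DiMSum log enrichment of output over input reads, centred on the mode score of non-aggregating sequences.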
For YDSLFCLSSHLGWCNRALPE, the amyloid nucleation score came to 0.977 ± 0.13. The figure for YDVSRDATDCRVYCCPFSRS is 1.23 ± 0.1. For YDWKNL, the amyloid nucleation score result is “inactive”. The entry for YELPDWSRYKQFVLLG is “inactive”; for YEMIKFSKY it is “inactive”; for YERSRMSVWRNT it is “inactive”. For the substance YFAWNRKVNYTRS, the amyloid nucleation score entry is “inactive”. The entry for YFCLQNFRVFLGRYMIHNYL is “inactive”. Turning to YFFKTQISSDGTLSTYECME, the amyloid nucleation score entry was “inactive”.

In turn, YFGDPVLNASLVIVLHLYWL returned an amyloid nucleation score of 1.21 ± 0.078.

In turn, YFGYRLLAAERSSERVICFK displayed an amyloid nucleation score of -0.352 ± 0.75.

YFIALCINSDKPPVHGVAVV: the amyloid nucleation score entry was “inactive”.

With YFKSSFQKSLIDEVALKGWL, the amyloid nucleation score was found to be 0.224 ± 0.54. The entry for YFLYMCALTHRWFWFKFFER is “inactive”; for YFRSK it is “inactive”; for YFSISLLTSK it is “inactive”. Consider YFTFCDCLGQLMTRGRGCSV, for which the amyloid nucleation score result is “inactive”. In the case of YFVPWGFAKDRRKTHDLPAE, the amyloid nucleation score result was “inactive”.

As to YGAFWGYSAGAVKLNENFSV, the amyloid nucleation score entry is “inactive”. For the substance YGCWQRWSRQVGYFRGDKAC, the amyloid nucleation score result is “inactive”. The figure for YGDWIHATCVICSLSF is 3.39 ± 0.05; for YGFFKAARRMRIS it is “inactive”; for YGIYWSETFRNSLCKIVNIL it is 0.66 ± 0.24. The entry for YGMDIIWW is “inactive”; for YGNFF it is “inactive”. As to YGNGWTFWSFLWGSTNRQRT, the amyloid nucleation score entry is “inactive”.

YGNLFSYAVMSRDLVSWGPV: the amyloid nucleation score result is “inactive”. As for YGPQGVGLMGSLIAVISFIR, the amyloid nucleation score turned out to be 1.12 ± 0.16.

Take YGRLPSWIKWFFLVVYIRVL: the amyloid nucleation score result was “inactive”. For the substance YGVESAYKCRNVYFLYWCML, the amyloid nucleation score is 0.511 ± 0.13. The entry for YGVYINEAVEVRGPHAYMTS is “inactive”; for YHCSLQIFVLNSWMSSYKWS it is 1.86 ± 0.098. The entry for YHGVLRWSKSTFAAHYPVTA is “inactive”; for YHLDIKNFHTLCWGPYFTSM it is 0.789 ± 0.25; for YHRRLSTVLMGCMNRGLNYL it is “inactive”.

For the substance YIAGFQFCSIIFQRRTVQLL, the amyloid nucleation score entry is “inactive”. The entry for YICVKYEVYNFTFYFVSGFW is “inactive”. The entry for YIFGNFRHTSGGYCVLSVLK is “inactive”; for YIHIY it is “inactive”. For YINSATRFDKFM, the amyloid nucleation score entry is “inactive”. The entry for YITMNVHSRDASVRWLDF is “inactive”; for YIVST it is “inactive”; for YIWLKGNIRRSQWLLSLPFM it is “inactive”. The entry for YIYEEASK is “inactive”; for YIYICLVFMSRCTKLYIELG it is “inactive”; for YKFSVTTL it is “inactive”. As for YKGDKFVRCSVW, the amyloid nucleation score entry is “inactive”. Regarding YKRGFMKRYANAEASFMSYW, the amyloid nucleation score entry is “inactive”.

For YKTYKYERLCIFVLSQRESI, the amyloid nucleation score entry was “inactive”. Consider YKWSLTTRRTVRHLRED, for which the amyloid nucleation score entry is “inactive”.

YLAPHMSATVVLDNEFGPES: the amyloid nucleation score entry is “inactive”. The entry for YLDFVFGLRTRDNYLWVRPT is “inactive”; for YLDSSSS it is “inactive”.

YLDVPTCDLSMPCYDINNNL: the amyloid nucleation score result was “inactive”. The entry for YLFTFVWQTTSLINVIVALI is “inactive”. The entry for YLIGLRCWCSL is “inactive”; for YLKWTNVVKMGHSKSSTE it is 1.29 ± 0.1; for YLLLARIEKRFGFFVISDPG it is “inactive”.

YLPFFEWRVQGRVFEVSMYY: the amyloid nucleation score entry was “inactive”. YLPSSSEFR: the amyloid nucleation score entry is “inactive”. The entry for YLSDVLSLWCSVQIWSGLYC is “inactive”; for YLSVPVF it is “inactive”. Turning to YLVFFA, the amyloid nucleation score result is “inactive”. The figure for YLVTWWMLSHKLTHMCFSGR is -0.024 ± 0.69. As for YMAAVQSTKRNFMHCNKVGS, the amyloid nucleation score entry was “inactive”. The entry for YMHGVWRWVVYRIFLYGRQA is “inactive”; for YMLLSVDILSYMPMTVVAEQ it is “inactive”; for YMLSGPRWFV it is “inactive”.

Turning to YMQQSR, the amyloid nucleation score result is “inactive”. YMTGNSSSWSTFGWDKRFGI had an amyloid nucleation score of 1.03 ± 0.09. The entry for YMYFKVDVDWRSPGMTARLL is “inactive”; for YNCRTLNCNYQVYYFVFLSD it is 3.15 ± 0.062; for YNDWQKEMCIITICVL it is “inactive”.

Turning to YNGYALRF, the amyloid nucleation score entry was “inactive”.

Take YNNVCSEAEWS: the amyloid nucleation score result was “inactive”.

As to YNYLV, the amyloid nucleation score entry was “inactive”. For the substance YPGMQEYVLGWNVWREK, the amyloid nucleation score entry was “inactive”. The entry for YPKRMCDRHS is “inactive”; for YQDLP it is “inactive”. As for YQNGLARWTWKYRNVINVLS, the amyloid nucleation score entry was “inactive”.

Take YQWNIMLKIDCSIDVVVVSN: the amyloid nucleation score stood at 0.827 ± 0.27. As to YQYCSISKHVFEWYGTSWMG, the amyloid nucleation score result was “inactive”. With YQYPVVDKRMYIFTTMFYFT, the amyloid nucleation score is 2.57 ± 0.082. In the case of YRFLMLITYYFCIV, the amyloid nucleation score amounted to 2.11 ± 0.071. In the case of YRFYSNNPTRCS, the amyloid nucleation score result is “inactive”.

Take YRGPVGIDSGVRS: the amyloid nucleation score entry was “inactive”. The entry for YRGVDLYVGVKLIRTYRVVR is “inactive”; for YRILRL it is “inactive”.

As for YRLCRGFNSFI, the amyloid nucleation score result was “inactive”. The entry for YRLVSLYFVLLFFGA is “inactive”; for YRNNAFPSEMHPIGRLEYAV it is 0.456 ± 0.15.

For the substance YRNVGHVCFDVEYPRVLFFA, the amyloid nucleation score entry was “inactive”.

Substance YRPSIRLTGCLSSLYTLFYG came in with an amyloid nucleation score of 1.92 ± 0.062. Turning to YRSKNFMIQRWTRVVLRAWM, the amyloid nucleation score entry was “inactive”.

Take YRSNEFISD: the amyloid nucleation score result was “inactive”. In the case of YRVKPFKWKYARRRLVIRWV, the amyloid nucleation score entry was “inactive”.

Consider YRWGISLIEMEQGGVVF, for which the amyloid nucleation score entry is “inactive”. Take YRYRACSSNFYVTVFGQLHV: the amyloid nucleation score turned out to be 2.33 ± 0.063.

Take YSCNKCVDEMRVRRGIERGV: the amyloid nucleation score entry is “inactive”. The entry for YSCVEDSGCVCKNPLVISEF is “inactive”. The entry for YSESIFIV is “inactive”. The entry for YSGGKGSGRELRYTLLVRGT is “inactive”; for YSGMGCFSAWSMW it is “inactive”. In the case of YSNNILFAQEISQPYGHMFP, the amyloid nucleation score result was “inactive”.

As for YSSSC, the amyloid nucleation score result was “inactive”. Regarding YSSSFIWMAYESIYFFLIFI, the amyloid nucleation score entry was “inactive”. On to YSVCVNAWGLSTLSTLWCTY, for which the amyloid nucleation score result is “inactive”. The entry for YSVLLCVALRLVNNVA is “inactive”. The entry for YSVLLLLDSYGAWSGAGGE is “inactive”; for YSVSEIRKSHLWITINMAVF it is “inactive”.

Regarding YSWDILSLLRGKETQACICY, the amyloid nucleation score result was “inactive”. The figure for YSWSMLL is 0.077 ± 0.54; for YTALHWLYFVSCKFDEKVQW it is “inactive”. Regarding YTDWGYDLRNGAGNGYIT, the amyloid nucleation score entry is “inactive”.

As to YTILVCYSAGVAYYNKGLVR, the amyloid nucleation score entry is “inactive”. Regarding YTLGHRTPMLIYDVAGRPNY, the amyloid nucleation score entry is “inactive”. The entry for YTRNKQDIWGGNHGSRCQNG is “inactive”; for YTVGCSYMVWVVFNFFYFSE it is 1 ± 0.14; for YTVILRVRGSMSAMQSMKFS it is “inactive”.

Turning to YTVTASQTYFYSCRDGFAFS, the amyloid nucleation score result is “inactive”. Regarding YTWYCFCRC, the amyloid nucleation score amounted to 2.44 ± 0.055. Consider YVCGQSG, for which the amyloid nucleation score result is “inactive”. For YVDIY, the amyloid nucleation score entry is “inactive”.

Turning to YVEKVYYCSVRLRYAFLDFD, the amyloid nucleation score result is “inactive”.

On to YVELSTYCSRWLVLIVDYLE, for which the amyloid nucleation score entry was “inactive”. Take YVFGKLSAFFFVRFNLQGLL: the amyloid nucleation score entry is “inactive”. Consider YVFKYVEEVSHFSLFLWTKS, for which the amyloid nucleation score result is “inactive”. The entry for YVFVRS is “inactive”; for YVGFLSSCFF it is 1.19 ± 0.14. Substance YVITQQSSFSVTLYSSINFC came in with an amyloid nucleation score of 0.625 ± 0.33.

YVIVLNR showed an amyloid nucleation score of 2.3 ± 0.069. Regarding YVIVYS, the amyloid nucleation score result is “inactive”.

Regarding YVMHWSVAEVLRSLCVNHVR, the amyloid nucleation score entry was “inactive”.
